The chains are these.
B1: CD166-16522.18-2001 (antibody, part only; not given: linkers and constant regions, V domains shown, not shown: small tags and cut ends)
VH: QITLKESGPTLVKPTQTLTLTCTFSGFSLSTYGMGVGWIRQPPGKALEWLANIWWSEDKHYSPSLKSRLTITKDTSKNQVVLTMTNMDPVDTATYYCVQIDYGNDYAFTYWGQGTLVTVSS
VL, part: LEGWCLHPACLWGAGISSGLLSGRSDNHDIVMTQSPLSLPVTPGEPASISCRSSKSLLHSNGITYLYWYLQKPGQSPQLLIYQMSNLASGVPDRFSGSGSGTDFTLKISRVEAEDVGVYYCAQNLELPYTFGQGTKLEIK
B2: CD166-16522.19-2001 (antibody, part only; not given: linkers and constant regions, V domains shown, not shown: small tags and cut ends)
VH: B1 VH
VL, part: B1 VL, part with A9L, L11A
B3: CD166-16522.21-2001 (antibody, part only; not given: linkers and constant regions, V domains shown, not shown: small tags and cut ends)
VH: B1 VH
VL, part: CLHPLCISSGLLSGRSDNHDIVMTQSPLSLPVTPGEPASISCRSSKSLLHSNGITYLYWYLQKPGQSPQLLIYQMSNLASGVPDRFSGSGSGTDFTLKISRVEAEDVGVYYCAQNLELPYTFGQGTKLEIK
B4: CD166-16522.20-2001 (antibody, part only; not given: linkers and constant regions, V domains shown, not shown: small tags and cut ends)
VH: B1 VH
VL, part: B1 VL, part with A9L, W12A

Among the data in patent publication US20160355587A1 are Fold Increase in Kd and Kd values, retold here.

Changes are numbered by the printed parent chain.

For one assay, the target named is T1, human CD166 protein (human) (UniProt Q13740).
T1 sequence (looked up): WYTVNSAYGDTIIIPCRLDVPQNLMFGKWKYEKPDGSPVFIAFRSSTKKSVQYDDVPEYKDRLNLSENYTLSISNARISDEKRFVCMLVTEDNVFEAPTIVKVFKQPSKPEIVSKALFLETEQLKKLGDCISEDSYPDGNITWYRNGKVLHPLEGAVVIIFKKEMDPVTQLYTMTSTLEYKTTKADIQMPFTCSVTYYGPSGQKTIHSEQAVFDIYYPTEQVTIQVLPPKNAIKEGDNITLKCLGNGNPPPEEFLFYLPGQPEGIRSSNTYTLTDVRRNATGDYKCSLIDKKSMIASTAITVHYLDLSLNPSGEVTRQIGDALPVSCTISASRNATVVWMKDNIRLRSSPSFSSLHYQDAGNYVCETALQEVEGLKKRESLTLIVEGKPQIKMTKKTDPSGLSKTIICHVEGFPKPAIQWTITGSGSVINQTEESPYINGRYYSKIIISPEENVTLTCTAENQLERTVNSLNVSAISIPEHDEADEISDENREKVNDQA
The assay can be described thus: ELISA; relative to parental CD166 M9 vk1/HcB. (In general: ELISA stands for enzyme-linked immunosorbent assay.)
On to B1, for which the Fold Increase in Kd came out at 13 fold.
Still for that read-out and setting: the result for B2 reads 11 fold; that for B3, 33 fold.
B4: the Fold Increase in Kd was found to be 158 fold.

Another assay concerns the target T1, human CD166 protein (human). The assay can be described thus: ELISA, human CD166 protein coated; apparent Kd.
As to B1, the Kd was 57.7 nM.
Same read-out and setting: the result for B2 reads 49.2 nM; that for B3, 145 nM.
For B4, the Kd was found to be 700 nM.
